# Assay results: US20130230533A1 (Regeneron, published 2013)
# Where a chain is given by its changes, count along the chain named. Numbers in names are those of the source.
# T1: Dimeric monkey CD48-mFc (monkey)
# T1 construct: Soluble monkey CD48 with a C-terminal Fc fusion [mFc]; the whole entry is the construct
# T1 chain: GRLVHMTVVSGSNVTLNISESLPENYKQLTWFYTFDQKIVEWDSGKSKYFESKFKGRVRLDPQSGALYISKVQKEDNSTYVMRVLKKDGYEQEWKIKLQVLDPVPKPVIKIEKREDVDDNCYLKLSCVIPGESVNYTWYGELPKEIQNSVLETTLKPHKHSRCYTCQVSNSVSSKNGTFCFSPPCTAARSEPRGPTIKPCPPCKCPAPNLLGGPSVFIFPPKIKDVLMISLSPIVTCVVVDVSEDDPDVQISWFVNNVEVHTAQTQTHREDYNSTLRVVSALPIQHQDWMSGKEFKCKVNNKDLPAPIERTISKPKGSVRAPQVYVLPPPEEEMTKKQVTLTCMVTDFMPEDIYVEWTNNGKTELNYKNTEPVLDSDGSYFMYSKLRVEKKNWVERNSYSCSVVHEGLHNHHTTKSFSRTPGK
# T2: Dimeric human CD48-mFc (human)
# T2 construct: the whole entry is the construct; also called hCD48-mFc
# T2 chain: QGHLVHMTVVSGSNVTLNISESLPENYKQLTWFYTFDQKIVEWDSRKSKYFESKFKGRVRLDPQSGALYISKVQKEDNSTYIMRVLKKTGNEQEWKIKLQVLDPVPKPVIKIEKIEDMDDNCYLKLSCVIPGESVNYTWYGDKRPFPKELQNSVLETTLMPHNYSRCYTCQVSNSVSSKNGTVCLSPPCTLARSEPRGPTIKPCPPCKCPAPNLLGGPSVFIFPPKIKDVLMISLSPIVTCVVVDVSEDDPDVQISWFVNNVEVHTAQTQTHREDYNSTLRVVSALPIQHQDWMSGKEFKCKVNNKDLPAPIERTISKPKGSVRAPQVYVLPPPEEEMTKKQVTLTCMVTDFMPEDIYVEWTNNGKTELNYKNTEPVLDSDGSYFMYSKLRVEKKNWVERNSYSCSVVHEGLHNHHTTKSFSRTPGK
# T3: Monomeric monkey CD48-mmH (monkey)
# T3 construct: Soluble monkey CD48 with a myc-myc-hexa-histidine C-terminal tag; the whole entry is the construct; also called mfCD48-mmH
# T3 chain: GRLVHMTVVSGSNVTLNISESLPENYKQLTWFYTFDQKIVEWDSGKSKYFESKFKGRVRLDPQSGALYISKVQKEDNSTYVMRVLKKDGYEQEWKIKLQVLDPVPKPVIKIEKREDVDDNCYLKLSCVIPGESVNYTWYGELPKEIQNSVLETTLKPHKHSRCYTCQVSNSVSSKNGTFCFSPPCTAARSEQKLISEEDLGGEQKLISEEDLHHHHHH
# T4: Monomeric human CD48-mmH (human)
# T4 chain: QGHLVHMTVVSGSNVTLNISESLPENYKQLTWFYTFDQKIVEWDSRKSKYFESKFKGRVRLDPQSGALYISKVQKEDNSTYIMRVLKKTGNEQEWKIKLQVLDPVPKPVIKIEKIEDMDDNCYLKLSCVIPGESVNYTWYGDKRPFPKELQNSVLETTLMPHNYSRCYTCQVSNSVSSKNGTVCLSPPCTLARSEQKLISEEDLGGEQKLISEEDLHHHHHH
# B1: H4H1771P (antibody, human IgG4, V domains shown)
# VH: QVQLVQSGTEVKKPGASVKVSCKVSGYTLIDLSIHWVRQAPGEGLEWMGGFDPEESETIYAQKFQGRVTMTEDTSTDTAYMELSSLRSEDTAVYYCVTEPIFGILIHESWGQGTLVTVSS
# VL: DIVMTQTPLSSPVTLGQPASISCRSSHSPVHSNGHTYLSWLQQRPGQPPRILIYKISRRFSGVPDRFSGSGAGTDFTLKISRVETEDVGIYYCMQASQFPWTFGQGTKVEIK
# notes: Human IgG4 Fc (H4H)
# B2: H4H1772P (antibody, human IgG4, V domains shown)
# VH: EVQLVESGGGLVQPGGSLRLSCAASGFTFSSYWMSWVRQAPGKGLEWVANIMRDGSEKYYVDSVKGRFTISRDNAKNSLYLQMNSLRGEDTAVYYCARERGFYTNYGNWFDPWGQGTLVTVSS
# VL: DIVMTQSPLSLTVTPGESASISCRSSQSLLHSYGYNSLDWYLQKPGQSPQFLIYLVSNRASGVPDRFSGSGSGTDFTLKISRVEAEDVGVYYCMQVLQTPYTFGQGTKLEIK
# notes: Human IgG4 Fc (H4H)
# B3: H4H1774P (antibody, human IgG4, V domains shown)
# VH: QVQLVESGGGVVQPGRSLRLSCAASGFTFSNYGMHWVRQAPGKGLEWVAVIWYDESSKYYTDSVKGRFTISRDNSQNTLYLQMTSLRAEDTAVYYCARDRWTYSHYFEYWGQGTLVTVSS
# VL: DIQMTQSPSSVSASVGDRVTITCRASQGISSWVAWYQQKPGKAPKLLIYAASSLQSGVPSRFSGSGSGTDFTLTISSLQPEDFATYYCQQANSFPRTFGQGTKVEIK
# notes: Human IgG4 Fc (H4H)
# B4: H4H1778P (antibody, human IgG4, V domains shown)
# VH: B3 VH
# VL: B3 VL
# notes: Human IgG4 Fc (H4H)
# B5: H4H1781P (antibody, human IgG4, V domains shown)
# VH: B3 VH with E55D, S57N, Y59N, T61A, Q76K, T84N, A88V, Y106F
# VL: B3 VL with V33L, K45N, S63G, T72S, S77G
# notes: Human IgG4 Fc (H4H)
# B6: H4H1779P (antibody, human IgG4, V domains shown)
# VH: B3 VH with Y59H, T61A
# VL: B3 VL with G28D
# notes: Human IgG4 Fc (H4H)
# B7: H4H1775P (antibody, human IgG4, V domains shown)
# VH: B3 VH with S57G, Y59H, T61A
# VL: B3 VL with G28D
# notes: Human IgG4 Fc (H4H)
# B8: H4H1789Pa (antibody, V domains shown)
# VH: EVQLLESGGGLVHPGGSLRLSCAASGFTFGGYAMSWVRQAPGKGLEWVSLISGSGGSTYYADSVKGRFTIFRDNSKNTLYLQMISLRAEDSAVYYCAKYSNYDYFDPWGQGTLVTVSS
# VL: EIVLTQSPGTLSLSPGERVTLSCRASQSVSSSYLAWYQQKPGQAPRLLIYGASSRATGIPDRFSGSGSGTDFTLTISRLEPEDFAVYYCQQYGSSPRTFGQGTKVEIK
# notes: Human IgG4 Fc (H4H)
# Biological target: T1, Dimeric monkey CD48-mFc
# Assay: SPR (Biacore), antibody captured by anti-Fc, CD48 in solution, 37 C
# Procedure: (§1) Measurements were conducted on a T100-2 BIACORE™ instrument (Biacore Life Sciences division of GE Healthcare, Piscataway, N.J.). Antibodies (either with mouse Fc [designated “H2M” or “H3M”] or human IgG4 Fc [designated “H4H”]) were captured through an anti-Fc chip surface, and CD48 was flowed over the surface either in a monomeric (soluble CD48 expressed with a myc-myc-hexa-histidine C-terminal tag [mmH]) or dimeric (soluble CD48 expressed with a C-terminal Fc fusion [mFc]) format.
# (§2) The soluble CD48 was applied to the flow cell in separate injections at different concentrations, and kinetic association (kₐ) and dissociation (kd) rate constants were determined by fits to the kinetic binding data using Biacore software. Binding dissociation equilibrium constants and dissociation half-times were calculated from the kinetic rate constants as: KD=kd/kₐ; t_{1/2}=(ln 2/kd) (units: ka=M⁻¹*s⁻¹; kd=s⁻¹; KD=M; T½=min) (Tables 3-6).
Kd [nM],T½ [h],koff [s⁻¹],kon [M⁻¹ s⁻¹],Binder
0.0621,1.88,0.000102,1.64e+06,B1
0.0947,2.63,7.31e-05,772000,B2
0.107,3.57,5.4e-05,508000,B3
0.0686,5.35,3.6e-05,525000,B4
0.0755,2.92,6.61e-05,875000,B5
0.0829,3.22,5.98e-05,721000,B6
0.0593,4.85,3.97e-05,669000,B7
0.776,0.25,0.000768,990000,B8

# Biological target: T2, Dimeric human CD48-mFc
# Assay: as above
# Procedure: as §1, §2
Kd [nM],T½ [h],koff [s⁻¹],kon [M⁻¹ s⁻¹],Binder
0.0166,4,4.81e-05,2.89e+06,B1
0.065,3.22,5.98e-05,920000,B2
0.0439,12.1,1.6e-05,363000,B3
0.0746,5.45,3.53e-05,473000,B4
0.0603,3.93,4.89e-05,812000,B5
0.0594,4.2,4.59e-05,772000,B6
0.0434,8.48,2.27e-05,522000,B7
0.161,5.4,3.57e-05,221000,B8

# Biological target: T3, Monomeric monkey CD48-mmH
# Assay: as above
# Procedure: as §1, §2
Kd [nM],T½ [h],koff [s⁻¹],kon [M⁻¹ s⁻¹],Binder
1.34,0.217,0.000877,657000,B1
4.53,0.133,0.00145,320000,B2
1.36,0.717,0.000267,197000,B3
1.34,0.767,0.000253,189000,B4
0.875,0.633,0.000307,350000,B5
1.04,0.667,0.000289,277000,B6
0.498,1.5,0.000129,260000,B7
4.71,0.1,0.00206,437000,B8

# Biological target: T4, Monomeric human CD48-mmH
# Assay: as above
# Procedure: as §1, §2
Kd [nM],T½ [h],koff [s⁻¹],kon [M⁻¹ s⁻¹],Binder
0.488,0.35,0.000547,1.12e+06,B1
5.94,0.183,0.00102,172000,B2
0.824,1.8,0.000107,130000,B3
0.837,1.7,0.000113,135000,B4
0.448,1.9,0.000101,226000,B5
0.495,1.88,0.000102,207000,B6
0.536,2.03,9.48e-05,177000,B7
8.97,0.1,0.00179,199000,B8

# Biological target: T1, Dimeric monkey CD48-mFc
# Assay: SPR (Biacore), antibody captured by anti-Fc, CD48 in solution, 25 C
# Procedure: as §1, §2
Kd [nM],T½ [h],koff [s⁻¹],kon [M⁻¹ s⁻¹],Binder
0.0587,3.5,5.51e-05,939000,B1
0.0968,3.83,5.02e-05,519000,B2
0.0525,9.3,2.07e-05,395000,B3
0.046,10.9,1.77e-05,384000,B4
0.0356,9.03,2.13e-05,599000,B5
0.0606,6.07,3.17e-05,522000,B6
0.0135,29.2,6.6e-06,488000,B7
0.423,0.7,0.000276,651000,B8

# Biological target: T3, Monomeric monkey CD48-mmH
# Assay: as above
# Procedure: as §1, §2
Kd [nM],T½ [h],koff [s⁻¹],kon [M⁻¹ s⁻¹],Binder
0.453,0.4,0.000477,1.05e+06,B1
1.1,0.383,0.000508,461000,B2
0.289,2.52,7.63e-05,263000,B3
0.325,2.15,8.98e-05,276000,B4
0.262,2.47,7.8e-05,298000,B5
0.375,1.7,0.000113,301000,B6
0.14,4.73,4.07e-05,291000,B7
3.31,0.133,0.00138,416000,B8
